Article PMC8302205
Changes are numbered by the printed parent chain. Numbers in names are those of the source.

B1: EanB (Chlorobium limicola DSM 245) (protein)
chain: MQNKNFRAPQSEAIGILYKLIETGSKHKNMYDHTEITTDSLLALLGSEKVKIIDVRSADAYNGWRMRGEVRGGHIKGAKSLPAKWLTDPEWLNIVRFKQIRPEDAIVLYGYTPEECEQTATRFKENGYNNVSVFHRFHPDWTGNDAFPMDRLEQYNRLVPAEWVNGLISGEEIPEYDNDTFIVCHAHYRNRDAYLSGHIPGATDMDTLALESPETWNRRTPEELKKALEEHGITASTTVVLYGKFMHPDNADEFPGSAAGHIGAIRLAFIMMYAGVEDVRVLNGGYQSWTDAGFAISKDDVPKTTVPEFGAPIPSRPEFAVDIDEAKEMLQSEDSDLVCVRSYPEYIGEVSGYNYIKKKGRIPGAIFAECGSDAYHMENYRNHDHTTREYHEIEDIWAKSGIIPKKHLAFYCGTGWRGSEAWFNALLMGWPRVSVYDGGWFEWSNDPENPYETGVPK
B2: EanB (Chlorobium limicola DSM 245; C116A/C184A/C339A/C370A) (protein)
chain: B1 chain with C116A, C184A, C339A, C370A

Substrate: C[N+](C)(C)[C@@H](Cc1cnc[nH]1)C(=O)[O-]
Experiment: purified protein
Assay type: biochemical, Chlorobium limicola
Conditions: 0.116 mM K2Sx, 50 mM KPi pH 8.0, 25 °C

Protein | Km [µM] | kcat [s⁻¹] | Km (EanB C412-only variant) [µM] | kcat (EanB C412-only variant) [s⁻¹]
B1 | 69.7 ± 8.7 | 0.0113 ± 0.00017 | – | –
B2 | – | – | 65.9 ± 3.4 | 0.0025 ± 0.00017
